According to the RNAGym collection of RNA variant scans (doi:10.1073/pnas.2313332121):
This sample holds only a part of the variants without activity.

B1: TPR 5TU (parent)
chain: GGAUCUUCUCGAUCUAACAAAAAAGACAAAUCUGCCACAAAGCUUGAGAGCAUCUUCGGAUGCAGAGGCGGCAGCCUUCGGUGGCGCGAUAGCGCCAACGUUCUCAACUAUGACACGCAAAACGCGUGCUCCGUUGAAUGGAGUUUAUCAUG

Variants of: B1
Assay: polymerase ribozyme fitness, log enrichment relative to wild type (log ratio); higher = more active; in vitro selection for triplet polymerase activity
Summary of the method: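 Frozen incubation at −7 °C formed the core of a single, triplicate in vitro selection round applied to PCR-built, transcribed mutant libraries of each subunit of a heterodimeric triplet polymerase ribozyme. Extended constructs were gel-excised, captured with streptavidin beads and amplified by RT-PCR, and input and output libraries were Illumina-sequenced with a filter of ≥10 input reads and ≥1 read per output. Fitness is the logarithm of genotype enrichment relative to wild-type enrichment, with inverse-variance-weighted replicate averaging, and the logarithm is base 2.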

Variant | polymerase ribozyme fitness (log ratio)
GGAUCUUCUCGAUCUAACACAAAAGACAAAUCUGCCACAAAGCUUGAGAACAUCUUCGGAUGAAGAGGCGGCAGCCUUCGGUGGUGCGAUAGCGCCAACGUUCUCAACUAUGACACUCAAAACGCGUGCUCCGUUGAAUGGAGUUUAUCAUG [A20C G50A C63A C85U G117U] | -1.09
GGAUCUUCUCGAUCUAACUAAAAAGACAAAUCUGCCACAAAGCUUGAGAGCAUCGUCGGAUGCAGAGGCGGCAGCCUUCGGUGGCGCUAUAGCGCCAACGUUCGCAACUAUGACACGCAAAACGCGUGCUCCGUUGAAUGGAGUUUAUCAUG [A19U U55G G88U U104G] | ≤ -4.2
GGAUCUUCUCGAUCUAACACAAAAGACAAAUCUGCCACAAUGCUUGAGAACAUCUUCGGAUGCAGAGGCGGCAGCCUUCGGUGGCGCGAAAGUGCCAACGUUCUCAACUAUGACACGCAAAACGCGUGCUCCGUUGAAUGGAGUUUAUCAUG [A20C A41U G50A U90A C93U] | ≤ -4.2
GGAUCUUCUCGAUCUAACACAAAAGACAAAUCUGCUACAAAGCUUGAGAGCAUCUUCGGAUGCAGAGGCGGCAGCCUUCGGUGGCACGGUAGAUCCAACGUUCUCAACUAUGACACGCAAAACGCGUGCUCCGUUGAAUAGACUUUAUCAUG [A20C C36U G86A A89G C93A G94U G140A G143C] | ≤ -4.2
GGAUCUUCUCGAUCUAACACAAAAGACAAAUCUGCCACACAGCUUGAGAGCAUCUUCGGAUGCAGAGGCGGCAGCCUUCGGUGGCGCGAUAGCGCCAACGUUUUCAACUAUGACACGCAAAACGCGUGCUCCGUUGAAUGGAGUCUAUCAUG [A20C A40C C103U U145C] | -0.185
GGAUCUUCUCGAUCUAACACAAAUGACAAAUCUGCCACAAAGCUUGAGAGCAUCUUUGGAUGCAGAGGCGGCAGCCUUCGGUGGCGCGAUAGCGCCAACGUUCUCAACUAUGACACGCAAAACGCGUGCUCCGUUGAAUGGAGUUUAUCAUG [A20C A24U C57U] | -0.111
GGAUCUUCUCGAUCUAACACAAAAGACAAAUCUGCCACAUAGCUUGAGAGCAUCUUCGGAUGCAGAGGCGGCAGCCUUCGGUGGCGCGAUAGCGUCAACGUUCUCAACUAUGACACGCAAAACGCGUGCUCCGUUGAAUGGAGUUUAUCAUG [A20C A40U C95U] | -0.74
GGAUCUUCUCGAUCUAACACAAAAGACAAAUCUGCCACAAAGCUUGAGAGCAUCUUCGGAUGCAGAGGCGGCAGCCUUCGGUGGCGCGAUAGCGCCAACGUUCUCAACUAUGACACGCAAAACGCGUGCUCCGUUGAAUGGAGUUUAUGAUG [A20C C149G] | -2.96
GGAUCUUCUCGAUCUAACUAAAAAGACAAAUCUGCCACAAAGCUUGAGAGCAUCAUCGGAUGCAGAGGCGGCAGCGUUCGGUGGCGCGAUAGAGCCAACGUUCUCAACUAUGACACGCAAAACGCGUGCUCCGUUGAAUGGAGUUUAUCAUG [A19U U55A C76G C93A] | ≤ -4.2
GGAUCUUCUCGAUCUAACACAAAAGACAAAUCUGCCACAAAGCUUGAGAGCAUCUUCGGAUGCAGAGGCGGCAGCCUUCGGUGGAGCGAUAGCGCCAACGUUCUCAACUAUGACACGCAAAACGCCUGCUCCGUUGAAUGGAGUUUAUCAUG [A20C C85A G126C] | 0.52
GGAUCUUCUCGAUCUAACACAAAAGACAAAUCUGCCACACAGCUUGAGAGCAUCUGCGGAUGCAGAGGCGGCAGCCUUCGGUGGCGCGAUAGCGCGAACGUUCUCAACUAUGACACGCAAUACGCGUGCUCCGUUGAAUGGAGUUUAUCAUG [A20C A40C U56G C96G A121U] | -1.15
GGAUCUUCUCGAUCUAACACAAAAGACAAAUCUGCCACAAAGCUUGAGAGCAUCUUCGGAUGCAGAGGCGGCAGCCUUCGGUGGCGCGAUAGCGCCAACGUUCUCAACUAUGACACGCAAAACGCGUGCUCCGUUGAAUGGAGUUUAUCAUG [A20C] | -0.413
GGAUCUUCUCGAUCUAACACAAAAGACAAAUCUGCCACAAAGCUUGAGAGCAUAUUCGGAUGCAGAGGCGGCAGCCUUCGGUGUCGCGAUAGCGCCAACGUUCUCAACUAUGACAUGCAAAACGCGUGCUCCGUUGAAUGGAGUUUAUCAUG [A20C C54A G84U C116U] | -3.08
GGAUCUUCUCGAUCUAACACAAAAGACAAAUCUGCCAGAAAGCUUGAGAGCAUCUUCGGAUGCAGAGGCGGCAGCCUUCGGUGGCGCGAUAGCGCCAACGUUCUCAACUAUGACACGCAAAACGCGUGCUCCGUUGAAUGGAGUUUAUCAUG [A20C C38G] | -1.37
GGAUCUUCUCGAUCUAACACAAAAGACAAAUCUGCCACAAAGCUUGAGACCAUUUUCCGAUACAGAGGCGGCAGCCUUCGGUGGCGCGAUAGCGCCAACGUUGUCAACUAUGACACGCAAAACGUGUGCUCCGUUGAAUGGCGUUUAUCAUG [A20C G50C C54U G58C G62A C103G C125U A142C] | ≤ -4.2
GGAUCUUCUCGAUCUAACACAAAAGACAAAUCUGCCACAAAGCUUGAGAUCAUCUUCGGAUGCAGAGGCGGCAGCCUUCGGUGGCGCGAUAGCGUCAACGUUCUCUACUAUGACACGCAAAACGCGUGCUCCGUUGCAUGGAGUUUAUCAUG [A20C G50U C95U A106U A137C] | ≤ -4.2
GGAUCUUCUCGAUCUAACUAAAAAGACAAAUCUGCCACAAAGCUUGAGAGCAUCUACGGAUGCAGAGGCGGCAGCCUUCGGUGGCGCGAUAGCGCCAACGUUCUCAACUAUGACACGCAAAACGCGUGCUCCGUUGAAUGGAGUUUAUCAUG [A19U U56A] | -0.835
GGAUCUUCUCGAUCUAACUAAAAAGACAAAUCUGCCACAAAGCUUGAGAGCAUCUACGGAUGCAGAGGCGGCAGCCUUCGGUGGCACGAUAGCGCCAACGUUCUCAGCUAUGACACGCAAAACGCGUGCUCCGUUGAAUGGAGUUUAUCAUG [A19U U56A G86A A107G] | ≤ -4.2
GGAUCUUCUCGAUCUAACUAAAAAGACAAAUCUGCCACAAAGCUUGAGAGCAACUUCGGAUGCAGAGGCGGCAGCCUUCGUUGGCGCGAUAGCGCAAACGUUCUCAACUAUGACACGCAAAACGCGUGCUCCGUUGAAUGGAGUUUAUCAUG [A19U U53A G81U C96A] | -2.73
